From article PMC3581363 (Biochemistry, 2013)

Molecular target: the molecule itself
Assay: cross-linking

B1: sigma-1 receptor cysteine 94 alanine / methionine 170 cysteine (C94A/M170C) double mutant (receptor, guinea pig, UniProt Q60492 1-223, looked up)
chain: MQWAVGRRWLWVALFLAAVAVLTQIVWLWLGTQNFVFQREEIAQLARQYAGLDHELAFSKLIVELRRLHPVHVLPDEELQWVFVNAGGWMGAMALLHASLSEYVLLFGTALGSPRHSGRYWAEISDTIISGTFHQWREGTTKSEVFYPGETVVHGPGEATAVEWGPNTWCVEYGRGVIPSTLGFALADTVFSTQDFLTLFYTLRVYARALQLELTTYLFGQDP
B1 was tested, and the “stoichiometry N” value was 2.
